Reference: the supplement of paper PMC9170038

Tested on: K4 kissing-loop RNA reporter
Assay: apparent KD of K4 kissing-loop reporter; higher = weaker reporter binding
Details: Eterna round: R107
Experimental: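 RNA-MaP round R107: designed RNA switches with theophylline, tryptophan, arginine or FMN aptamers are transcribed on-chip within common flanks. They are titrated with a labelled K4 kissing-loop RNA reporter in RNA-MaP buffer (100 mM Tris pH 7.5, 80 mM KCl, 4 mM MgCl2), without ligand or with the indicated ligand. Median apparent KD per design.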

[1] = input ligand: theophylline 20 uM
[2] = input ligand: tryptophan 2.4 mM
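Further: bound reporter read as fluorescence of individual clusters on recovered sequencing chips by microscopy, with normalized cluster intensities fitted with a binding model.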

Row | Sequence | apparent KD of K4 kissing-loop reporter (input ligand: FMN 200 uM) | apparent KD of K4 kissing-loop reporter (input ligand: arginine 13.2 mM) | apparent KD of K4 kissing-loop reporter (input ligand: none) | apparent KD of K4 kissing-loop reporter [1] | apparent KD of K4 kissing-loop reporter [2]
1 | GGAUAGGACAGAGGAUAUGGACAGUCUACAAAGUAGGCUGAAAAUCCUUGAAUGGAAGUGAUGUUUCUAGAAGGCUGUCCUAUCG [FmnBX 19 - #SwitchBubble #StaticStem #Palindromic] | 800 nM | 160 nM | 190 nM | 174 nM | 180 nM
2 | GUAUUGUGAAUGGAUACCAGACACCCGAGUGAUGUUCGGAGCAGAGUGAUGUUCUAAUAAGUCCCUUGGCAGCCGGAAGCAGCCG [Same State Theophylline B GF 3] | 223 nM | 296 nM | 340 nM | 392 nM | 242 nM
3 | AGACUACUGAUAGGAUAUAACAUACUACCUCGUAUACCAAAGGUAUACGAGGCCCUUCUAGUGAUGUUAGAAGGGUCGGUAGUCA [Omei KL FMN B Exc B v5] | 93.5 nM | 76.4 nM | 79.5 nM | 81.2 nM | 83.2 nM
4 | GAUAUAUAGACGGCCGCCACUUAUAAAUUUCAGUGAUGUUGAAAUGUUAAAUAACGAACACAAUAGAGGACCGGGUCAAAUAUCG [Same State Tryptophan B GF 2] | 162 nM | 161 nM | 190 nM | 187 nM | 171 nM
5 | CGUGAGUGCCGACGGUCAUCGGUCCAUGCACGAGGACCGGUACGGCCGCCACUCGAGCGUGGCAGUGAUGUUGCCAGCGCACUAA [Oninvexece] | 114 nM | 89.5 nM | 101 nM | 98.5 nM | 85.6 nM
6 | AAAGUGUCAGCACGAGUGAUGUUCGACGAUACCAGCCUCGAUAGAGGCCCUUGGCAGCGUAAACCAAGGGCUGGCACAAAAUAAA [#SwitchBubble 6 #K4Early] | 1050 nM | 975 nM | 1350 nM | 439 nM | 1360 nM
7 | UGUACCGAGUCAGGAUAUGGCCGGAAACGGAAUAACCAGUGAUGUUGGAAUAAAUGGCGAAAGCCUCCAGAAGGGACUUGGUACU [FmnBS 18 #SwitchBubble #StaticStem #DoubleMagnetSystem] | 158 nM | 213 nM | 211 nM | 212 nM | 185 nM
8 | UUUAUUUUCUGAGGAUAUCGUUUUACUGAAGUGAUGUUUCAGUAUUUUCAUAUUAUAUAUAAUUUUCGAGAAGGCAGUAUUAUUA [JR_Nu_SSFMNB_Sub027] | 83.5 nM | 60.4 nM | 63.7 nM | 72.2 nM | 64.3 nM
9 | GUAUCGCUAGGAGGAUAUUUCAUAUAACAUAUAAAUGGAUAUGCGGAGUGAUGUUCCGAUUUACGGAAAGAAGGCCUAGUGAUAC [FMN B 19] | 119 nM | 172 nM | 192 nM | 207 nM | 172 nM
10 | AAGUGUGUGGCGGCCGCCACUAGAAUCCAGUGAUGUUGGAGAUAUCUCGUAAGAGAUAUCCGCCAUAGGACCGGGCCAUAUAGAA [Same State - Tryptophan B (Freestyle 15)] | 981 nM | 720 nM | 1260 nM | 413 nM | 771 nM
11 | AAGUUUUAUAAACUCAUGGUUUCGACAGAUACCAGCUUCGAGAGGAGCCCUUGGCAGCUGCAUGAGUGAUGUUCAUGUACGAAGA [KL-XTheoA8] | 377 nM | 362 nM | 480 nM | 416 nM | 359 nM
12 | UCGAAGGAUGGAAGGAGCGCUCGUCAGUCCUGCGAGUGAUGUUCGUGGGUAAAUAUUCGCGAGCAGGUAGGUCGCCAUCUUGAGA [Laatla] | 135 nM | 96.7 nM | 112 nM | 108 nM | 129 nM
13 | ACGACUGGAUGAAUAACAUCUAGUCGAGAUCGAGGACCGGUACGGCCGCCACUCGAGCUAACUGCGAGUGAUGUUCGAUAAUAAA [#OpenEnded 2] | 277 nM | 302 nM | 253 nM | 200 nM | 88.4 nM
14 | UAACUUGCAGUGAUGUUGCAAGAACUGGAUACCAGCAUGGAAACAUGCCCUUGGCAGCCAGAAGGUAUCCUCUGCAAGAGAUACA [Design1] | 318 nM | 274 nM | 311 nM | 289 nM | 292 nM
15 | GCAUCCUAGUCGGCCGCCACUAACAUGAGUGAUGUUCAUGUACGUCAGUGAUGUUGACGUAGUUAUAGGACCGGGACUAGGAUGC [KL-SSTryp-B7 Brourdwalk3] | 146 nM | 119 nM | 137 nM | 118 nM | 120 nM
16 | CUUGGAAGGACGGCCGCCACUCGACAGUGAUGUUGUCCGAGUUGGUAACGCAGUGAUGUUGUGUCGAGGACCGGGUCCUAGGAAU [Exclusion Tryptophan B GF 26] | 199 nM | 149 nM | 185 nM | 174 nM | 147 nM
17 | AAGGUCACUGCUACAGUGAUGUUGUGGGAGCAGGAUAUGCAGAAAUGCAGAAGGGCUCGCUCCAGGUGACCGAAUGAAACAUUCA [whbob_SS_FMNA__2th175] | 1070 nM | 826 nM | 1500 nM | 887 nM | 1000 nM
